± gives the half width of the 95% confidence interval.
Test: folding stability dG unfold from trypsin proteolysis; higher = more stable
Protocol: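 Folding stability of de novo designed mini-proteins (<80 aa, no Cys; designed by TrROS, TrMRF, ProteinMPNN and the joint model) was measured by cDNA display proteolysis with trypsin and chymotrypsin. Each protease was used at 11 concentrations in a threefold dilution series plus a no-protease condition. K50 was inferred by Bayesian fitting of sequencing counts, and dG unfold was derived against a sequence-predicted unfolded-state K50 (Tsuboyama et al. method). Sequences shown include variable-length N-terminal GS-type padding (SAGGSAGG...) inside a display construct carrying a PA tag. Rows were kept only if the AF2 dimer inter-PAE was >15, to exclude likely homo-oligomers.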

Sequence	folding stability dG unfold
SAGGNWRPVERPIPIEPGMPPEEFIDEIADELPPGWRIDKPEPHPDNNYFKITVYDPNDGNQVEILFSAGGS [r16_250_TrROS]	0.363 ± 0.15 kcal/mol
SAGWRRIPPGRPIRIRLKGNGEEITIPIPEGAEVEPDPDNNNVMIWFREDGKEWSMNFKNGRIDDIEPVSAG [r5_22_TrROS]	-0.194 ± 0.32 kcal/mol
SAGGSAGGAVPSYIKDIETIPETSALIVNAESEEIVKEFLEKLGLKIESKEVDEDKIILPAKIESAGGSAGG [r6_381_JUSTAS]	0.774 ± 0.099 kcal/mol
SKVLELLKELAKKLGATITEVKVEKLEDGTVKVTATITVTYLDKNGKPVKTETLTLTITVKNGKITEIKLSA [r9_519_TrROS_Hall]	4.66 ± 0.55 kcal/mol
SMKIKITAKTEEEREKAKKLLEEIAKELNIEIKIEKIEVIPKPKPEKVELSEEEKKKLKELEEEGLIEEESA [r9_472_TrROS_Hall]	0.578 ± 0.059 kcal/mol
SAGGSAGGSAGGLEVSIPGWTVTKTEPLPDDSVLSTATKKNGPKFLISISPDEVTISPESAGGSAGGSAGGS [r10_312_JUSTAS]	-0.394 ± 0.16 kcal/mol
SAGGSAGGSMYRYTVTFPNTGTVLEKEFESLEEAKKYIPKDRPIKEIKVEPVEPPVSPEVLLVSAGGSAGGS [r12_851_JUSTAS]	-0.217 ± 0.18 kcal/mol
SAGGSAPGKKTIKIEIIFPFPEEQAKEFADYIAKGIADETGHDPENIDIKVEVHVFDPANNEPRPFSAGGSA [r15_918_TrROS]	-0.236 ± 0.2 kcal/mol
SAGGSAGGSAGGHPVRVRITWPDGQQRTIPIPVDPENGQVTLEEIAKTISPEHGWKIEVFSAGGSAGGSAGG [r7_492_TrROS]	-0.107 ± 0.2 kcal/mol
SAGGSAGGSAGTKEYEVKVGDKIVRISETPDSRVIDYPETDFKKEFSSDFPGKPIAEYLASAGGSAGGSAGG [r11_648_TrMRF]	-0.781 ± 0.49 kcal/mol
SAGGSAGGSAGGTKVIPFDSVEEILEEVKKDPNKPRYIRMPGAWIKINKPGDITEIEPWPSAGGSAGGSAGG [r7_532_TrROS]	-0.655 ± 0.46 kcal/mol
SDILERAAEKGVDEIHIMLQPNQIELIKRLQDRGAKIEIHFPPGVPKEYLKKLPGFKVDKVEWMPPDDMPSA [r9_671_TrROS]	-0.928 ± 0.56 kcal/mol
SAGGSAGGSPVTVETSSQTSTVPLPTGPTVTLVTNTTTTTRPVPLSTPRSSSTTTVTTTVTVVSSAGGSAGG [r6_224_JUSTAS]	-0.311 ± 0.11 kcal/mol
SAGGSAGGSASVSSPERFTVPRPDGTPVEVTLVEPEKGYYEVTDPATGERTRLPIEDIPPVSAGGSAGGSAG [r3_213_JUSTAS]	-0.607 ± 0.12 kcal/mol
SAGGSAMIKTYEEEVELTVPGGSTPVKVRVKTIEKIEKDEKGNLKTEVVEVKIETPENAPAVALLLSAGGSA [r15_258_JUSTAS]	-0.327 ± 0.21 kcal/mol
SAGGSAGGPVTVVPVVTPADVPVLTTPGGAPARPASRPDLVRPVASTVTVTITPAPAAPTVTVLSAGGSAGG [r6_537_JUSTAS]	0.857 ± 0.038 kcal/mol
SKITITIEEEEVEVNGKKYKVFKVTATVTVTEYKFKDGKLVEKKTKTKTITVRIVLDKNGKIVKIEPLPDSA [r9_829_TrROS_Hall]	4.33 ± 0.32 kcal/mol
SAGGSAGGSAGGPKFKFEDVMVQRNPEPERAYVPITYEDPGKERPIMIPIPPNQTLDEISAGGSAGGSAGGS [r10_304_TrROS]	0.0428 ± 0.068 kcal/mol
SAGGSAGGSAGGGPSVAPFEVTELLSVSYVPGPRRFVAVVRLPDPERLVVVPVEDLPPGQSAGGSAGGSAGG [r7_304_TrMRF]	-0.941 ± 0.41 kcal/mol
SAGGSAGGSAGMPLPIKTLTEVSTVEGVGITLTALDNGLVIVEKSDGKVTVIPLSAYEAQSAGGSAGGSAGG [r11_254_JUSTAS]	0.643 ± 0.04 kcal/mol
SAGGSMTLTEVSYEGDKVVTTTTTFTPGAPALTSSTTTTPIPPVPLGPRPVIFFEPVSEMRPLALVSAGGSA [r2_332_JUSTAS]	0.628 ± 0.051 kcal/mol
SAGGSAEEKAKAIKEELEKKGEVKKVTVTIEPTPENSTKVTVEIEKEPKPKPKEYKYTELPNGKKVILSAGG [r13_957_JUSTAS]	-0.416 ± 0.12 kcal/mol
SAGKFKITSIKPLYVTTPADAPPVKKPYLVIELDAEDPEKARELAEKLTGAPVLVVEDPETGTATIVIDSAG [r5_907_TrMRF]	0.121 ± 0.082 kcal/mol
SAGGSAGGSIEIDHDRDPGTNRYTATVEIPDPDGKGLEVEVQMNGDPEDAAKTAAKTVLEEFNSAGGSAGGS [r20_33_TrROS]	0.07 ± 0.27 kcal/mol

Sequence	folding stability dG unfold
SKMKIKIEITEVYPEGKTIVVKAEIEIDGKTIEMEMTIKLPNGEEYRIRMRFVRRKDGRLEMEIEVEKLPSA [r9_255_TrROS_Hall]	5.33 ± 0.51 kcal/mol
SAGGSAGGSAGGGMTTVTIEVPPELSEEEVRRAAAELVAAGRPVPVTVERLPEDRVVVVTSAGGSAGGSAGG [r7_283_JUSTAS]	0.68 ± 0.021 kcal/mol
SAGGSAGGPPDDVEPEEFTFRFGDKPIKVEILRVNPDNNNIMIKHESNGKPKTMMFPPEDLEKLSAGGSAGG [r6_421_TrROS]	-0.129 ± 0.29 kcal/mol
SAGGSAGGSASLPEKLAQEAKEKILKENPDVEVTEIVVTKLPPEKYTVTIKTPDGKTETIPLSAGGSAGGSA [r18_423_JUSTAS]	-0.00229 ± 0.023 kcal/mol
SDVNIKPEKVDPNGIFTVEIPVDNNNVDKLREIINEIFPNFEPTEVKPNPESGYHEIIMRVPDGKAFEFSSA [r9_1164_TrROS]	-0.141 ± 0.04 kcal/mol
SAGGSAGGSAGGSSVPADTVVELEFKDEKGEPLLITVRVTTKDSGVDRTVLEVRPPELLSAGGSAGGSAGGS [r10_744_JUSTAS]	0.00915 ± 0.05 kcal/mol
SAGGGKIVFTEGYLLAEFPPTDLRVARPIPPDRPELALEEVADAFIAEMEAEFGFPPPEDVRVEVLASAGGS [r8_402_TrMRF]	0.28 ± 0.058 kcal/mol
SAGGSAGGSMSTSESVTVTFPDGSVRKATILKQEKLPNGTVPVEIVDEGGTSVGTRNWTVTAESAGGSAGGS [r12_735_JUSTAS]	-0.456 ± 0.28 kcal/mol
SAGGWRLNINFPPDNIEKIVEKLRDEFPGWEIKPDKIEYNPDDGQYTIPIEVKSKNPRAAEKIQDAIQSAGG [r13_539_TrROS]	0.154 ± 0.14 kcal/mol
SAGGSAGGSAGMSPNIVSYETVESDKNGNIIKKTTYLYSDNTIITETFSPKKKKKIQTFSKESAGGSAGGSA [r18_302_JUSTAS]	-0.434 ± 0.29 kcal/mol
SAGGSAGGSMRFVTIKVPGPDTTFTFDTDGDEALEAKLAELEKKHPEIKKENIEKLEVNPGPGSAGGSAGGS [r12_852_JUSTAS]	-0.345 ± 0.52 kcal/mol
SAGGSAGGSAGGSSSLPLSTGTIPLEELEAQGGPIVEVTVLLFSGSSNRTIVMDLPPELVSAGGSAGGSAGG [r7_116_JUSTAS]	-0.372 ± 0.29 kcal/mol
SAGMYTVLETRTVNGRTVTLIDVPERPLTVTVTVDRDPSGRRTVTVNVEGEVKEILEKANPDIDELTLESAG [r5_933_JUSTAS]	0.456 ± 0.096 kcal/mol
SAGGSAGGSVEIKSITTVTDPNSSANPTTITVKRDPAKGVLGEEVKAIAKALEEAGYPTTFGTSAGGSAGGS [r12_172_JUSTAS]	-0.769 ± 0.17 kcal/mol
SAGGSAGGSAGGSQELTIKIPPGEPDVRIFFPDGGEEHEIPPGDEREIELSPDKIAVQPSAGGSAGGSAGGS [r10_46_TrROS]	0.763 ± 0.059 kcal/mol
SAGGSAGGSAGPVISKSEVESTEIIFSYNNKHEITVKKVKKTITTTIPPVKLKPDGTPILSAGGSAGGSAGG [r11_558_JUSTAS]	-0.803 ± 0.51 kcal/mol
SAGGSAGGSMMKVRVYARNKDGEEVPVEEIEIPPEVETPEEALKLAEELAKKEGVEEVRVEIESAGGSAGGS [r12_569_TrROS_Hall]	-0.13 ± 0.19 kcal/mol
SAGGSAGGSAGSKEKLEEEAKAKGRPVTPLPDGTLKVETVDPNKGTASTTVIDPETAEKLSAGGSAGGSAGG [r11_994_JUSTAS]	-0.626 ± 0.058 kcal/mol
SAGGSAGGSAGMKPGQEVRVEVPVPNNGKKIKIPVYVPPGYTPKQAKNMAIMMAKMIREMSAGGSAGGSAGG [r11_355_TrROS]	0.516 ± 0.072 kcal/mol
SAGGSAGGSAGGKKVKIKIEIPGMSKEEIEKLAKELEKKGIKVEKIEVKPLPKVEVFEKKSAGGSAGGSAGG [r7_906_TrROS_Hall]	-0.602 ± 0.27 kcal/mol
SAGGSAGGSMDPGQPMEFIQIYPDPDGNLEIHVSEIRIDPDGGAKVTEVEPKRIDDAEDLAKFSAGGSAGGS [r12_386_TrROS]	-0.752 ± 0.19 kcal/mol
SAGGSAGGSSPEIPLPPEIAEEIEVPGSGTTVLLHPSTGLVLYKPPPEELAVGRYDPSTGVLESAGGSAGGS [r12_420_JUSTAS]	0.985 ± 0.051 kcal/mol
SAGGSASMITSTLTDPSTGTSSTLPTEVLQKLLDENPPDSNLVLPTGPKPVTVKVEPEKGLATFTGSAGGSA [r15_350_JUSTAS]	0.153 ± 0.039 kcal/mol

— the supplement of paper PMC12764529
